From the RNAGym collection of RNA variant scans (doi:10.1073/pnas.2313332121) come the findings set out here.

To fix the notation:
B1: TPR t1 (parent)
chain: GACCAAUCUGCCCUCAGAGCUCGAGAACAUCUUCGGAUGCAGAGGAGGCAGGCUUCGGUGGCGCGAUAGCGCCAACGUCCUCAACCUCCAAUGCAUCCCACCACAUGAUGAUGCCUGAAGAGCCUUGGUUUUUUG

The data set covers variants of B1. As to the kind of experiment: polymerase ribozyme fitness, log enrichment relative to wild type (log ratio); higher = more active; in vitro selection for triplet polymerase activity. Put shortly:
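For each subunit of a heterodimeric triplet polymerase ribozyme, a mutant library was built by PCR and transcribed, then taken through a single in vitro selection round in triplicate. Selection involved annealing to a biotinylated primer, the partner subunit and triplets, incubation frozen at −7 °C, gel excision of extended constructs, capture on streptavidin beads and RT-PCR. Genotypes were retained after Illumina sequencing of inputs and outputs only with ≥10 input reads and ≥1 read in each output. Fitness is defined as the logarithm of a genotype's enrichment relative to wild-type enrichment, using inverse-variance-weighted averages across replicates, with the logarithm taken to base 2.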
A46C C101G G120A: the “polymerase ribozyme fitness (log ratio)” value is -2.
Under A29U U38G C88U stands -3.31; under A100C G120A, 1.47.
Under U38A G61A stands -1.68; under C11G C12A G63A, -0.541.
Under A6G G71A C101A stands -3.04; under U78A A111C, -0.127; under A2G G39U, -1.18.
Turning to U33A A46U, the “polymerase ribozyme fitness (log ratio)” value is -4.71.
Under C40U G51U stands -3.7; under C15A C72G, -2.3; under U55A C73A C104A A118G G122U, -1.07.
As for C49G C98G, the “polymerase ribozyme fitness (log ratio)” value is -4.99.
Then A37C C40U C53U G63U C123G U133C, with -0.381.
For the variant G44A G52U U87A, the “polymerase ribozyme fitness (log ratio)” value was -2.35.
Then C62U U112G C115A U126G, with -2.54; and C49A C72G C89G G113U, with -5.04.
Then C8G C34A U55A C70G C104G G110A, with -7.2; and C12G C72G U87C, with 0.909.
Then U7A G52U G60A G61C C62U, with -6.92; and A103C U109G U130C, with -5.77; and C64U U130A, with -0.073.
Take G17C A41G A91U: the “polymerase ribozyme fitness (log ratio)” value is -4.31.
Take C40U A43G G61A G71U C124A: the “polymerase ribozyme fitness (log ratio)” value is -4.58.
Consider C3U C11U C13G U116C, for which the “polymerase ribozyme fitness (log ratio)” value is -4.66.
Under C13U A46U C72G G122A stands -1.17; under C13A C28G C34A G69A A84C G110C, -4.89; under C20A G44U G69A C86A C123G, -6.49.
In the case of C101A G117A, the “polymerase ribozyme fitness (log ratio)” value is -2.65.
Take C89A U112A: the “polymerase ribozyme fitness (log ratio)” value is -1.53.
Consider C72U U78C G117U G122A U130G, for which the “polymerase ribozyme fitness (log ratio)” value is -2.87.
With A2G C8G C70G, the “polymerase ribozyme fitness (log ratio)” value is -2.83.
With U38G G47U G120A U130C, the “polymerase ribozyme fitness (log ratio)” value is -1.92.
Then C11G C123G, with 0.989; and G51U G135U, with -4.28; and U21C C56A C70U C82A, with -2.18.
Under G51U C101U stands -4.07; under G48U C49A C115U U133C, -2.27.
For the variant C11U C79G U92A U106C U112A, the “polymerase ribozyme fitness (log ratio)” value was -5.83.
Then U7G C31U C62U A100C U106A G113A, with -4.43; and C20U C56A G71U A118U G120U, with -2.27; and G77U U125A, with -1.21.
Under C34U C62U stands -5.32.
For the variant G58A U81A, the “polymerase ribozyme fitness (log ratio)” value is -0.982.
Then U9G C70U U81C G110U, with -3.84; and A6G C12G A46U A50U C56U C73A, with -2.15; and C8A C22U C53G G61A U106A A118G, with -4.47.
Under C11U C56A U116C stands -2.85; under A50U A108G, -3.01.
Under C12U C72U U96A C115U stands -1.92; under C101A C114U, -2.99; under C101A C114A, -2.19.
As for A2U U54A C72A C101G U129A U130A, the “polymerase ribozyme fitness (log ratio)” value is -2.15.
Then G48C G71C C123G, with -0.00854; and C12U A46U G51U G69U A74U, with -3.04; and C8U C70U C97U C124U U131A, with 0.416.
As to C97U C114A, the “polymerase ribozyme fitness (log ratio)” value is -1.76.
Then U7G A46U C82U C102A U112A, with -0.759; and C76A A119G, with 0.169; and A2U C12A, with -3.25.
Under A84C C94G U96C C124U stands -0.869; under C56U A90G C104U G117A A118U U131G, -2.92; under C34A C72U U116G, -5.21.
As to A6U C15G U33A G63A G93A G113U, the “polymerase ribozyme fitness (log ratio)” value was -6.39.
For the variant G44C U54A A105G G117U U129A U133A, the “polymerase ribozyme fitness (log ratio)” value was -7.26.
As to A6C A43U A83U C98U C104U, the “polymerase ribozyme fitness (log ratio)” value was -2.52.
Then G36C A91C, with -1.87.
Then C11G A16U C28G A121C, with -0.982.
Under C22U A26G G52C A105C C124U stands -4.45.
As for G57C U106A U112A, the “polymerase ribozyme fitness (log ratio)” value is 1.17.
Under G39C C114A stands -1.94; under A18C, -2.11; under U14G G48U C94A C101U G120C, -2.13.
Under G71C A90C stands -3.67.
In the case of U9A C15A G39U C49A C56U A121U, the “polymerase ribozyme fitness (log ratio)” value was determined as 0.6.
Then C12U U54A C64U, with 0.381.
Then C20A G93A, with -3.32; and A27G C62U C94A U106C, with -4.15; and U9G C40U C114G G122A C123G, with -5.42.
On to C72A C73U, for which the “polymerase ribozyme fitness (log ratio)” value was -0.581.
Consider C101G G127A, for which the “polymerase ribozyme fitness (log ratio)” value is -2.28.
Under A29G C53A A91G C98A A111G stands -7.
Then G42U G61U C88G C101A G120C, with -3.56; and U32C G63A A74U, with -3.86; and G69C C104A C123G, with -1.33.
A5U C72A: the “polymerase ribozyme fitness (log ratio)” value is -0.164.
Under U59G A90G C97U A111C stands 0.601; under A6G C70A, -2.41; under G45C G58C, -0.221.
Then A2C G63A, with -2.37.
Under C49U U106A U116G G128A stands -5.82.
Turning to A6U U9C G47A G69A, the “polymerase ribozyme fitness (log ratio)” value was -2.93.
Consider U116A A121U, for which the “polymerase ribozyme fitness (log ratio)” value was -0.72.
Then A5U G63C C85A C101A A118U, with -2.94; and G39U C49A, with -0.99; and C82U C86A C97A, with -4.95.
Then C76G U78C G135U, with -1.36; and C15U U55G G69A, with -3.22; and C64U C88A U96G U109C A121G, with -6.55.
As to C40A C56G, the “polymerase ribozyme fitness (log ratio)” value is -2.58.
Then A5G C13G A37G, with -1.28; and C8G G10A A16C A95U G122U, with -0.858; and G25C C53G, with -6.8.
Under C72U C94G stands -1.95; under A27G G61A U81C A84C C104U G110U U131C, -2.62.
C8A C101U G117U: the “polymerase ribozyme fitness (log ratio)” value is -0.423.
Then A41U C70A C89G C97A A105C G110U, with -5.8.
Then C12U A18U A108U C114U A121C U129C, with -6.88.
Then C70U G110C, with -4.32.
For C12G G36C A66U C85U C86A, the “polymerase ribozyme fitness (log ratio)” value was -3.38.
Then U32A C40U G63A A83G G120C, with -7.22.
Under G63A A83G A90G C98G A105C stands -7.87; under C8A G122A, 0.24.
C20G C62A: the “polymerase ribozyme fitness (log ratio)” value was -4.56.
Under G23A G77U stands -6.47; under G52U G120C, -0.122.
Under C11A G39A stands -2.5; under C28U A41C G57C, -2.88; under C11A A111U, -4.43.
Consider C4U G45U, for which the “polymerase ribozyme fitness (log ratio)” value is -1.35.
Then G44U C97A, with -6.15; and G45C C53G C73A, with -0.795; and C53A G61A U78G, with 0.644.
Then G61A U106C, with 0.151; and A18G U59A A111U, with -6.09.
Turning to U38G C53A U81C C101U C124G, the “polymerase ribozyme fitness (log ratio)” value stood at 1.
Then A50U C53U A83G A84C C89G C115U, with -5.92; and G44A U96G U116A, with -5.13.
Under U9G G57A U112A C123U G128A stands -3.19.
Then G45U A105C, with -4.28; and A29U C40U G44U C85U C89A C94G, with -4.32; and C8G C82A G117U, with 0.587.
With C11U, the “polymerase ribozyme fitness (log ratio)” value was -0.381.
Under U78C C101A stands -0.679; under C4U A16G C49U G69A G71C U78G C82U A84U C115A, -6.51; under A5U G60U, -0.228.
Under C12A G42C C73A C80U A118G stands -3.44.
Consider A43U G93U, for which the “polymerase ribozyme fitness (log ratio)” value is -2.7.
C3A A5U A29G U116C: the “polymerase ribozyme fitness (log ratio)” value was -2.92.
For the variant C70U A74G G120C, the “polymerase ribozyme fitness (log ratio)” value is -1.57.
Under A46U C53A A111U stands -4.45.
Then A46G G63C A84G C88U C124U, with -0.641; and A26U A29G, with -4.77; and G17C C88U, with -4.49.
In the case of C12A G17A A111U U116C, the “polymerase ribozyme fitness (log ratio)” value is -6.09.
Under G69U G110A A118C stands 0.45; under A43U U87G, -1.43; under C28U C40A C123A, -3.16.
Under C40G G61A C104A U106C stands -1.7; under G10A C13G G69A U78C, -3.65.
Under G45U C72A U87A A121C stands 0.113.
As for C56G A66U A74C G122A, the “polymerase ribozyme fitness (log ratio)” value was -6.51.
Then C53A C62G A108G, with -3.91; and C53A G60A A100U G120C C123G, with -1.07.
On to G52A G60C G61A, for which the “polymerase ribozyme fitness (log ratio)” value was -4.56.
Then G61A U112C G127C, with 0.55; and C62U U126G, with -3.05.
Then U21A A43U G61A C73U A90G, with -3.13.
Under C4A C8A A37U C56A stands -1.7; under G35A G48A G71A C89A C99A C101U, -7.55; under A41U A90C, -1.41.
As for A37C G45A G113U, the “polymerase ribozyme fitness (log ratio)” value was -4.52.
Then A6U C15G G61A, with -1.82; and C12G C28G A37U C72U G110U, with -0.76; and C13U C34G U133A, with -4.86.
Under G45U G120U stands -0.652; under C34A C114G, -5.41.
